{
  "source": "paper PMC3458824",
  "about": "“Direct Observation of the Uptake of Outer Membrane Proteins by the Periplasmic Chaperone Skp” (PLoS ONE, 2012)",
  "test_in_all_cases": "FRET or BRET; stopped-flow FRET; Cy5 labeled OmpC mutant in 8 M urea mixed 1:20 with Cy3 labeled Skp mutant; both 0.03 µM final; 50 mM PBS pH 7.0, 100 mM NaCl, 0.01% Tween 20, 25°C; Cy5 emission, fitted to three exponentials",
  "settings_in_all_cases": "both partners purified",
  "key": {"Skp-E82C-Cy3": {"molecular_target": "T1, Skp-E82C-Cy3 (Escherichia coli, UniProt P0AEU7 21-161, E82C, Cy3 (Cy3-maleimide) on the introduced cysteine at 82)", "T1 construct": "Skp of Escherichia coli, each monomer 141 residues as printed; Extent of labeling greater than 90%; one dye on each of the three chains of the trimer; also called Cy3 labeled Skp mutant E82C; Skp-Cy3; source: E. coli BL21 (DE3), purified (Ni-NTA), labeled with Cy3-maleimide", "T1 sequence (looked up)": "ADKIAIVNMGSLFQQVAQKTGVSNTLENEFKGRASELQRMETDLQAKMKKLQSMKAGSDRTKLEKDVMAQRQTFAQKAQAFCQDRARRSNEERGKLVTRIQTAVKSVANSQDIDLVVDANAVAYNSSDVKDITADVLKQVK"}, "Skp-D128C-Cy3": {"molecular_target": "T2, Skp-D128C-Cy3 (Escherichia coli, UniProt P0AEU7 21-161, D128C, Cy3 (Cy3-maleimide) on the introduced cysteine at 128)", "T2 construct": "Skp of Escherichia coli, each monomer 141 residues as printed; Extent of labeling greater than 90%; one dye on each of the three chains of the trimer; also called Cy3 labeled Skp mutant D128C; Skp-Cy3; source: E. coli BL21 (DE3), purified (Ni-NTA), labeled with Cy3-maleimide", "T2 sequence (looked up)": "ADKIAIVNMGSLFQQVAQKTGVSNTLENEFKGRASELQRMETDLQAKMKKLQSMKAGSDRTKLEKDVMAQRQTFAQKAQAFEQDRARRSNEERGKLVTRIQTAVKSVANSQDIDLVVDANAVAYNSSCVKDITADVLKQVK"}, "Skp-K55C-Cy3": {"molecular_target": "T3, Skp-K55C-Cy3 (Escherichia coli, UniProt P0AEU7 21-161, K55C, Cy3 (Cy3-maleimide) on the introduced cysteine at 55)", "T3 construct": "Skp of Escherichia coli, each monomer 141 residues as printed; Extent of labeling greater than 90%; one dye on each of the three chains of the trimer; also called Cy3 labeled Skp mutant K55C; Skp-Cy3; source: E. coli BL21 (DE3), purified (Ni-NTA), labeled with Cy3-maleimide", "T3 sequence (looked up)": "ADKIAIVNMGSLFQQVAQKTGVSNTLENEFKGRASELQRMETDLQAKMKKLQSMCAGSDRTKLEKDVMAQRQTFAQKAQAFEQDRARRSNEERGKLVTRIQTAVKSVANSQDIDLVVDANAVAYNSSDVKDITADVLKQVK"}},
  "data": [
    {"binder": "OmpC-D25C-Cy5 (natural protein, Escherichia coli, UniProt P06996 22-367, looked up, Cy5 (Cy5-maleimide) on the introduced cysteine at 25, Outer membrane protein OmpC of Escherichia coli; 346 residues as printed; Extent of labeling greater than 90%; also called Cy5 labeled OmpC mutant D25C; source: E. coli BL21 (DE3), purified (Ni-NTA) in 8 M urea, unfolded, labeled with Cy5-maleimide) AEVYNKDGNKLDLYGKVDGLHYFSCNKDVDGDQTYMRLGFKGETQVTDQLTGYGQWEYQIQGNSAENENNSWTRVAFAGLKFQDVGSFDYGRNYGVVYDVTSWTDVLPEFGGDTYGSDNFMQQRGNGFATYRNTDFFGLVDGLNFAVQYQGKNGNPSGEGFTSGVTNNGRDALRQNGDGVGGSITYDYEGFGIGGAISSSKRTDAQNTAAYIGNGDRAETYTGGLKYDANNIYLAAQYTQTYNATRVGSLGWANKAQNFEAVAQYQFDFGLRPSLAYLQSKGKNLGRGYDDEDILKYVDVGATYYFNKNMSTYVDYKINLLDDNQFTRDAGINTDNIVALGLVYQF", "values": [
      {"measurement": "time constant τ1 of the fast phase", "setting": "Skp-E82C-Cy3", "value": "101 ± 6.9", "unit": "ms"},
      {"measurement": "time constant τ1 of the fast phase", "setting": "Skp-D128C-Cy3", "value": "143 ± 10", "unit": "ms"},
      {"measurement": "time constant τ1 of the fast phase", "setting": "Skp-K55C-Cy3", "value": "73 ± 5.1", "unit": "ms"}
    ]}
  ]
}
